Measured values as given in patent US20220348651A1 (Novartis, published 2022).

B1: ANTI-HUMAN ENTPD2 MAB8 (antibody, human IgG1, lambda, V domains shown)
VH: QVQLQQSGPGLVKPSQTLSLTCAISGDSVSSSSAAWNWIRQSPSRGLEWLGRIYYRSKWYNDYAVSVKSRITINPDTSKNQFSLQLNSVTPEDTAVYYCARGSYVTSSYEGFDYWGQGTLVTVSS
VL: SYELTQPLSVSVALGQTARITCSGDNLPEKYAYWYQQKPGQAPVLVIYDDNKRPSGIPERFSGSNSGNTATLTISRAQAGDEADYYCQSYGKWGWTWVFGGGTKLTVLG
notes: also called Anti-ENTPD2 mAb8
B2: ANTI-HUMAN ENTPD2 MAB9 (antibody, human IgG1, lambda, V domains shown)
VH: QVQLVQSGAEVKKPGSSVKVSCKASGGTFDSYAVSWVRQAPGQGLEWMGRIVPWLGHTQYAQKFQGRVTITADESTSTAYMELSSLRSEDTAVYYCARESPGYRYSFDVWDQGTLVTVSS
VL: SYELTQPLSVSVALGQTARITCSGDAIGEKYVYWYQQKPGQAPVLVIYDDNNRPSGIPERFSGSNSGNTATLTISRAQAGDEADYYCASYDLQQARWVFGGGTKLTVLG
notes: also called Anti-ENTPD2 mAb9
B3: ANTI-HUMAN ENTPD2 MAB10 (antibody, human IgG1, lambda, V domains shown)
VH: QVQLVQSGAEVKKPGSSVKVSCKASGGTFDSYAVSWVRQAPGQGLEWMGRIVPWLGFTRYAQKFQGRVTITADESTSTAYMELSSLRSEDTAVYYCARESPGYRYSFDVWDQGTLVTVSS
VL: SYELTQPLSVSVALGQTARITCSGDAIGEKYVYWYQQKPGQAPVLVIYDDNNRPSGIPERFSGSNSGNTATLTISRAQAGDEADYYCASYDLQQARWVFGGGTKLTVLG
notes: also called Anti-ENTPD2 mAb10

Experiments:
[1] = target: T1, recombinant monomeric mouse ENTPD2 extracellular domain (residues 29-462) with His6 tag (mouse, UniProt O55026 29-462); test: SPR Biacore
T1 sequence: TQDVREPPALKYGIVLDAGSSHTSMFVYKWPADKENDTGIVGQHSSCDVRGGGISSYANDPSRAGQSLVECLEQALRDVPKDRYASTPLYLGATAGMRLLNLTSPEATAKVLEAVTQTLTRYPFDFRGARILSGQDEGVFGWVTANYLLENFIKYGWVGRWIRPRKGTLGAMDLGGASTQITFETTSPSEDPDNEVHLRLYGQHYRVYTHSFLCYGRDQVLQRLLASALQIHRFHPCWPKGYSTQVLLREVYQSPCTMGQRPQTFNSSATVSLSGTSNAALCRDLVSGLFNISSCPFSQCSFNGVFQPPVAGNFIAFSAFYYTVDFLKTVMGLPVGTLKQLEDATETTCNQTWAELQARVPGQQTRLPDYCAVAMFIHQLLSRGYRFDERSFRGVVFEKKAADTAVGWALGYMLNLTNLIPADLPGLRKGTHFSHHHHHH

[2] = target: T2, human ENTPD2 expressed on cells (human, UniProt Q9Y5L3 1-495); test: cell-based or functional assay
T2 sequence: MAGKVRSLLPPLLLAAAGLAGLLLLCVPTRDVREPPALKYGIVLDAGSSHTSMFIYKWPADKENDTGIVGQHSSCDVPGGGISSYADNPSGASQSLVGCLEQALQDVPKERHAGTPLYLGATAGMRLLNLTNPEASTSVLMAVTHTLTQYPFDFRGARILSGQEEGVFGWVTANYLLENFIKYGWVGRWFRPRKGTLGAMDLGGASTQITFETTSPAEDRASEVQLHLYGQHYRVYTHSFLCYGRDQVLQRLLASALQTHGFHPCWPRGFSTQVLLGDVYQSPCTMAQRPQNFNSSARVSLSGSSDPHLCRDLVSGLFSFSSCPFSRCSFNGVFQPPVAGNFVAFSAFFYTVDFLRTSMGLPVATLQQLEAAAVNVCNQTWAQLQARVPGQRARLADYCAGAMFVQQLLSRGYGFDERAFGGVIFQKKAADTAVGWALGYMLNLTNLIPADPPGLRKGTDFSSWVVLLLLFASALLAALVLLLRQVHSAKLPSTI

[3] = target: T3, cyno ENTPD2 expressed on NIH/3T3 cells (cynomolgus macaque, UniProt Q9Y5L3 1-495 (human entry)); test: cell-based or functional assay
T3 chain: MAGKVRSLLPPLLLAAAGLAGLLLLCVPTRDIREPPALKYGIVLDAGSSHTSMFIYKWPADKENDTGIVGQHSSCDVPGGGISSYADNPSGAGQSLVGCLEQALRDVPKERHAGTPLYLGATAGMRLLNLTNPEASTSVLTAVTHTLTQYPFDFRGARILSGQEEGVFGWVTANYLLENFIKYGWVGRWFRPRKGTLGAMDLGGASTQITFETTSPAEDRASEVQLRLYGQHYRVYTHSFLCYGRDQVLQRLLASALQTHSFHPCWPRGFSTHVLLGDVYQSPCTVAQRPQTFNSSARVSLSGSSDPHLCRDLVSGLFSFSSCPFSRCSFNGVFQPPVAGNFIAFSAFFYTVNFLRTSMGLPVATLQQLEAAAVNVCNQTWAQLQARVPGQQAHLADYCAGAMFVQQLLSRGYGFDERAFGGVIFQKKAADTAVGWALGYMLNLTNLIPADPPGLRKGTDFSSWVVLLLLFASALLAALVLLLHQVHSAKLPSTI

[4] = target: T3, cyno ENTPD2 expressed on NIH/3T3 cells; test: flow cytometry, NIH3T3 cyno ENTPD2 cells
[5] = target: T4, recombinant cyno ENTPD2 extracellular domain (residues 29-462) with C-terminal Avi-His6 tag (cynomolgus macaque, UniProt Q9Y5L3 29-462 (human entry)); test: SPR Biacore, mAb captured, ECD analyte, 25C
T4 construct: also called cynomologus (cyno) ENTPD2 ECD
T4 chain (part 1 of 2): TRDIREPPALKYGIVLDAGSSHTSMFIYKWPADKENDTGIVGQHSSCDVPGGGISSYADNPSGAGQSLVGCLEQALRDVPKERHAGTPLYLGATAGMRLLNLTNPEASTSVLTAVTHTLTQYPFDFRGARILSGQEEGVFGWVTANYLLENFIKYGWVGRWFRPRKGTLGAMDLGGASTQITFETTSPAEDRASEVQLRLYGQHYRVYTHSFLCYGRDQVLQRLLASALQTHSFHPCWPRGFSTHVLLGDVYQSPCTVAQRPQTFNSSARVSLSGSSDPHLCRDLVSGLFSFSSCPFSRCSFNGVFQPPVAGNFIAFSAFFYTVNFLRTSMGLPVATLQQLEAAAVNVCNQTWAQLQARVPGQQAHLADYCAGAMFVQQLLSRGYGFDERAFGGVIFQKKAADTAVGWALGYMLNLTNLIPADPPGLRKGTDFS
T4 chain (part 2 of 2): HHHHHH
Procedure: Biacore Screening: Affinity was measured by determining the kinetic rate constants using surface plasmon resonance (SPR) on a Biacore T200 or T100 with the T200 sensitivity upgrade instrument (Biacore, GE Healthcare). Antibodies were captured on CM5 sensor chips (Biacore, GE Healthcare) prepared with a mouse anti-human IgG Fc antibody (ThermoFisher catalogue #05-4200) amine coupled to the surface. […] ENTPD2 analytes were allowed to associate for 180 s and dissociate for up to 1800 s depending on the off-rate of the antibody at a flow rate of 30 μL/min. The running buffer was PBS pH 7.2 (prepared from a Corning 10X stock, cat#46-013-CM)+0.05% Tween 20. […] The raw data were analyzed using Biacore T200 Evaluation Software version 1.0 and fit to a 1:1 binding model, with all parameters set to fit globally except for RI, which was set to fit locally.

[6] = target: T2, human ENTPD2 expressed on cells; test: flow cytometry, RKO cells (endogenous ENTPD2)
Procedure: FACS screening: Specific binding of candidate antibodies to endogenously expressed ENTPD2 was assessed by flow cytometry. […] Geometric mean fluorescence intensity was calculated on live single cells using FlowJo software.

Row | Binder | binding result [1] | % inhibition, Human ENTPD2 NIH/3T3 Assay [2] [%] | % inhibition, RKO Assay [2] [%] | IC50, Human ENTPD2 NIH/3T3 Assay [2] [nM] | IC50, RKO Assay [2] [nM] | % inhibition, Cyno ENTPD2 NIH/3T3 Assay [3] [%] | IC50, Cyno ENTPD2 NIH/3T3 Assay [3] [nM] | EC50 [4] [nM] | Kd [5] [nM] | koff [5] [s⁻¹] | kon [5] [M⁻¹ s⁻¹] | EC50 [6] [nM] | Kd [1] [nM]
1 | B1 | binds | 97 | 95 | 0.1 | 0.2 | 96 | 0.9 | 2.1 | 81.1 | 0.024 | 300000 | 0.3 | –
2 | B2 | – | 92 | 70 | 0.3 | 0.1 | 71 | 0.3 | 1.3 | 20.9 | 0.021 | 990000 | 0.5 | 750
3 | B3 | binds | 88 | 77 | 0.4 | 0.2 | 86 | 0.5 | 1.7 | 15.2 | 0.018 | 1.2e+06 | 0.6 | –
